# Measured values taken from patent US20220265772A1, “USES OF DAN FAMILY BMP ANTAGONISTS FOR INHIBITING OCULAR NEOVASCULARIZATION AND TREATING OCULAR CONDITIONS” (9636137 Canada Inc., priority 2019, published 2022).
# Columns and labels:
# [1] = system: human pluripotent stem cells / stem cell-derived human cones; assay: Cone photoreceptor differentiation, maintenance and survival (earlier study and unpublished work); type: cell-based; conditions: in vitro, unpublished work
# Excerpt: Inactivation of DAND5 in mice leads to multiple laterality and cardiovascular defects and a significant proportion of animals die perinatally. […] However, prior to the present invention, it was unknown that DAND5, or any of the six other members of the DAN family of BMP antagonists, could play a role in inhibiting and preventing ocular neovascularization and pathological angiogenesis.
# [2] = system: Wnt signaling; assay: Canonical Wnt signaling in HUVECs (immunoblotting, β-catenin immunofluorescence); type: cell-based, human
# Procedure: FIG. 12 is a panel with a schematic, pictures showing that Dand5 reduces canonical Wnt signaling in HUVECs. HUVECs were plated to confluence and received a 2 h scratch in the presence or absence of Dand5 ([…]) or IWR1 (3 μM). β-catenin (green) localization was examined by immunofluorescence with phalloidin and DAPI (nuclei) to identify the cell boundaries and nucleus. […] Scale bars, […]).
# Cells were washed with cold PBS and extracted in Laemmli's buffer, followed by sonication. Samples were run on SDS-PAGE gels and transferred onto nitrocellulose membranes. Membranes were blocked with 5% Bovine Serum Albumin (BSA) and probed with primary antibodies overnight at 4° C.: beta-Catenin (Cell Signaling Technology), phospho-beta-catenin (Cell Signaling Technology), Axin2 (Cell Signaling Technology), beta-Actin (Santa Cruz Technologies). HRP-conjugated secondary antibodies (Vector Laboratories) were used to detect primary antibodies.
# We next evaluated the molecular mechanisms underlying the effects of DAND5 on endothelial cells. […] Wnt signaling regulates fundamental aspects of vascular development, including cell fate specification, proliferation and survival. […] HUVECs were treated for up to 24 hours with DAND5 or IWR-1, an inhibitor of Wnt canonical signaling. Protein extracts were harvested and subjected to immunoblotting against downstream effectors of Wnt signaling. […] The levels of β-catenin at different subcellular localizations are regulated by a variety of processes including site-specific phosphorylation of β-catenin. In the absence of an active Wnt signaling, β-catenin localization at cellular junctions is reduced and cytoplasmic β-catenin associates with the destruction complex (6).
# [3] = system: mitochondrial metabolism in HUVECs; assay: NAD+/NADH cycling, ATP, glucose and lactate assays in HUVECs; type: cell-based, human
# Procedure: HUVECs plated into 100 mm dishes were treated with COCO for various time points. NAD+ and NADH were extracted using ice cold alkali (0.5M NaOH, 1 mM EDTA) and acidic buffers (0.1M HCl) respectively. Extracts were heated at 60° C. for 30 min and buffers were neutralized with either the NADH (100 mM Tris-HCl pH 8.1, 0.05M HCl) or NAD+(0.4M Tris) neutralization buffers. To attain measurable quantities of NAD+ or NADH, an amplifying cycling assay was performed. Extracts and NAD+ standards were incubated with cycling reagent (67 mM Tris-HCl pH 8, 200 mM EtOH, 1.3 mM beta-mercaptoethanol, 0.01% BSA, 2 mM oxaloacetic acid, 0.5 μg/mL malate dehydrogenase, 5 μg/mL alcohol dehydrogenase) for 1 hour at room temperature. All samples were heated for 5 min at 100 C to stop enzymatic reactions then cooled on ice. For detection, extracts were incubated in an indicator buffer (50 mM 2-amino-2-methyl-propanol pH 9.9, 200 μM NAD+, 10 mM glutamate, 0.04% BSA, 5 μg/mL malate dehydrogenase, 2 μg/mL glutamate oxaloacetate transaminase) for 10 min at room temperature. Then 100 μL if sample was transferred to a black 96-well plate. Fluorescence was detected using a plate reader (TECAN) at an excitation of 365 nm and emission of 460 nm. Standard curves were generated and the concentration of NAD+ and NADH were calculated from the standard curve (references: Kato T., et al. Analytical Biochemistry 53, 86-97 (1973); Lin S., et al, JBC. Vol 276, No. 38, 36000-36007 (2001)).
# ATP detection: HUVECs were plated into 100 mm dishes and treated with COCO for various time points. ATP was measured by luminescence (ATP Detection Assay Kit; Cayman Chemicals). Metabolite measurements: HUVECs were cultured for up to 48 hours in the presence or absence of COCO. Culture media was collected at 1 h, 3 h, 6 h, 12 h, 24 h and 48 h, centrifuged at 12000 rpm for 5 min, aliquoted and stored at −80 C. Media was analyzed for glucose concentration using a BioProfiler 400 Analyzer (BioNova). For measurements of lactate, the culture media was analyzed using the Lactate Colorimetric/Fluorometric Assay Kit (BioVision, K607) as per the manufacturer's instructions.
# We exposed or not HUVECs to recombinant DAND5 and measured the concentration of free radicals using DCFDA and MitoSoxRed™. […] To further test this, we measure the NAD+/NADH ratio in cells treated or not with DAND5. […] Likewise, glucose uptake was reduced and lactate levels were increased in DAND5-treated HUVECs after 1 h (FIG. 8E, lower panel).
# [4] = HUVECs treated for up to 24 hours, immunoblotting
molecule,measurement,setting,value
"DAND5: human recombinant DAND5/COCO biologically active fragment produced in E. coli, predicted 18.2 kDa monomer, R&D systems 3047-CC-050 (protein) MRPEPQSPRPQSWAAANQTWALGPGALPPLVPASALGSWKAFLGLQKARQLGMGRLQRGQDEVAAVTLPLNPQEVIQGMCKAVPFVQVFSRPGCSAIRLRNHLCFGHCSSLYIPGSDPTPLVLCNSCMPARKRWAPVVLWCLTGSSASRRRVKISTMLIEGCHCSPKA",survival of stem cell-derived human cones,[1],displays pro-survival activities
same,levels of Axin2,[2]; [4],increased levels of Axin2
same,levels of phosphorylated beta-catenin,[2]; [4],increased levels of phosphorylated beta-catenin
same,levels of total beta-catenin,[2]; [4],decreased levels of total beta-catenin
same,cytoplasmic β-catenin,"[2]; confluent HUVECs, 2 h scratch, Dand5 60n/mL or IWR1 3 μM",increased cytoplasmic β-catenin
same,β-catenin subcellular localization,[2]; staining of HUVECs cultured in the presence of DAND5,decreased membrane localization and increased internalization of β-catenin in the cytoplasm
same,NAD+/NADH ratio,[3]; HUVECs exposed to DAND5,decreased
same,glucose uptake,"[3]; HUVECs, after 1 h",reduced
same,lactate levels,"[3]; HUVECs, after 1 h",increased
same,ATP levels,"[3]; HUVECs, after 1 h of treatment",reduced
same,ATP levels,"[3]; HUVECs, at 1, 6 and 24 hours",reduced
